Literature values, collected in paper PMC2964873.

Biological target: plectin-1 95-117 (Homo sapiens) (UniProt Q15149)
UniProt Q15149, sequence (Q15149 95-117): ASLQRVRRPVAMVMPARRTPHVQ

Kd: 0.029 µM
Substance: Siah (from UniProt Q8IUQ4)
